Assays:
[1] = target: none (gp100-negative cells) peptide on HLA-A2 (human); assay: RNA-electroporated human PBL with HLA-A2+ gp100-negative melanoma A375; 31 pg/ml for transduced PBL in Table 7; text: did not recognize melanoma cell lines not expressing gp100; full-length, on cells; details: chains Valpha:Vbeta
[2] = target: T1, gp100 peptide on HLA-A*02:01 (human); assay: multimer staining
T1 peptide: ITDQVPFSV

B1: Sp(0.01)A TCR (TCR, V domains shown)
Valpha: QQKVQQSPESLIVPEGAMTSLNCTFSDSASQYFAWYRQHSGKAPKALMSIFSNGEKEEGRFTIHLNKASLHFSLHIRDSQPSDSALYLCAANNYAQGLTFGLGTRVSVFP
Vbeta: EAAVTQSPRSKVAVTGGKVTLSCHQTNNHDYMYWYRQDTGHGLRLIHYSYVADSTEKGDIPDGYKASRPSQENFSLILELASLSQTAVYFCASSPGGGGEQYFGPGTRLTVL
Q: How did the IFN-gamma release [1] turn out when B1 was run?
A: 45 pg/mL

Q: Does B1 bind [2]?
A: no recognition

From US20140219978A1 (published 2014)
